According to paper PMC5074588:

Biological target: tubulins (tubulin dimers; paclitaxel-stabilized microtubules)
Test: co-sedimentation; different concentrations of the protein added to paclitaxel-stabilized microtubules (prepolymerized from 8 uM tubulins in Fig 5A, 5 uM in S7 Fig) in PEMT buffer (1 mM MgCl2, 1 mM EGTA, 100 mM PIPES, 20 uM taxol, pH 6.9); 25 C 30 min; 100,000g 30 min; SDS-PAGE, Coomassie

Chain of tubulins (tubulin dimers; paclitaxel-stabilized microtubules) (P02550 whole entry, chain 1 of 2): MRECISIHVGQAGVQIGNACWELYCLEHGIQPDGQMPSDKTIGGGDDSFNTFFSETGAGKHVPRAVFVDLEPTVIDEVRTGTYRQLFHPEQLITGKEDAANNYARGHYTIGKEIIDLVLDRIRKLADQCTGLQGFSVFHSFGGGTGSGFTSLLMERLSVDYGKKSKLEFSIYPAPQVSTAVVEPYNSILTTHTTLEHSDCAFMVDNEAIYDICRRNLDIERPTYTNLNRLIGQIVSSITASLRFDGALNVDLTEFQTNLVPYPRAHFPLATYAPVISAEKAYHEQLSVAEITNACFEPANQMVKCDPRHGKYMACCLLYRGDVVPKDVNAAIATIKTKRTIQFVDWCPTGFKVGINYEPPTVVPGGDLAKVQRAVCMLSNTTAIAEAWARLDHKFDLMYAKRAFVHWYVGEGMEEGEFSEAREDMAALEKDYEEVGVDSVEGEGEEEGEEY
Chain of tubulins (tubulin dimers; paclitaxel-stabilized microtubules) (P02554 whole entry, chain 2 of 2, further chain): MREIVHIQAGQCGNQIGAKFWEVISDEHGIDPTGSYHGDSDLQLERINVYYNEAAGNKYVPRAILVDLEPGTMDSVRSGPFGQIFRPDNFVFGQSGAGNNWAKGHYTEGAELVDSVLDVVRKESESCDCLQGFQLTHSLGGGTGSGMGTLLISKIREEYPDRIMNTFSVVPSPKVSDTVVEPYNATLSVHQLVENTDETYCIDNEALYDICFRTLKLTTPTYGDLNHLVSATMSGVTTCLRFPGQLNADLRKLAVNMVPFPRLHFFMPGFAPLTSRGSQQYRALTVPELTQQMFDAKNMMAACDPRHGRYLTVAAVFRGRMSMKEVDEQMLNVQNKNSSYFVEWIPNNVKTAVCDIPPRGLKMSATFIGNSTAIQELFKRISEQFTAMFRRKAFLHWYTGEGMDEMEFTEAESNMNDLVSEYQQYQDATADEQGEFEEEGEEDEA

Work on “His-AUG8 (AUGMIN subunit 8) (natural protein)” yielded a stoichiometry N (M His-AUG8 per mole of tubulin dimers) of 0.22.
